Blank lines part the entries; values can stand above or below the substance they belong to.
Assays:
[1] = target: microtubules polymerised from porcine brain tubulin (porcine) (UniProt P02550); test: TIRF microscopy (sfGFP fluorescence intensity on immobilised microtubules); as a3, but DCLK1 pre-incubated with 2 mM ATP for 30 min at 25°C
[2] = target: microtubules polymerised from porcine brain tubulin (porcine) (UniProt P02550); test: co-sedimentation; as a5, but DCLK1 pre-incubated with 2 mM ATP at 25°C for 30 min
[3] = target: microtubules polymerised from porcine brain tubulin (porcine) (UniProt P02550); test: co-sedimentation; 500 nM sfGFP-DCLK1 with 2 μM taxol-stabilized microtubules, 25°C 20 min, pelleted at 90,000 xg; 50 mM Tris pH 8, 150 mM K acetate, 2 mM Mg acetate, 1 mM EGTA, 10% glycerol; DCLK1 pre-incubated 30 min without ATP
[4] = target: microtubules polymerised from porcine brain tubulin (porcine) (UniProt P02550); test: TIRF microscopy (sfGFP fluorescence intensity on immobilised microtubules); non-stabilized GDP microtubules grown from GMPCPP seeds fixed to the coverslip; 10 nM DCLK1 with 10 uM tubulin and 2 mM GTP in BRB80-based assay buffer; DCLK1 pre-incubated 30 min at 25°C without ATP
[5] = target: microtubules polymerised from porcine brain tubulin (porcine) (UniProt P02550); test: TIRF microscopy (sfGFP fluorescence intensity on immobilised microtubules); taxol-stabilized microtubules immobilised on the glass surface, sfGFP-DCLK1 flowed in; no ATP; 60 mM HEPES pH 7.4, 50 mM K acetate, 2 mM Mg acetate, 1 mM EGTA, 10% glycerol, biotin-BSA, Pluronic, κ-casein, 10 μM …; KD from a one-site-binding hyperbola fit of intensity against concentration
[6] = target: microtubules polymerised from porcine brain tubulin (porcine) (UniProt P02550); test: TIRF microscopy (sfGFP fluorescence intensity on immobilised microtubules); as a1, but DCLK1 incubated with 2 mM ATP for 30 min at 25°C before it was flowed onto immobilised taxol-stabilized microtubules; KD from a one-site-binding hyperbola fit

Sequence of microtubules polymerised from porcine brain tubulin (porcine) (P02550 whole entry, chain 1 of 2): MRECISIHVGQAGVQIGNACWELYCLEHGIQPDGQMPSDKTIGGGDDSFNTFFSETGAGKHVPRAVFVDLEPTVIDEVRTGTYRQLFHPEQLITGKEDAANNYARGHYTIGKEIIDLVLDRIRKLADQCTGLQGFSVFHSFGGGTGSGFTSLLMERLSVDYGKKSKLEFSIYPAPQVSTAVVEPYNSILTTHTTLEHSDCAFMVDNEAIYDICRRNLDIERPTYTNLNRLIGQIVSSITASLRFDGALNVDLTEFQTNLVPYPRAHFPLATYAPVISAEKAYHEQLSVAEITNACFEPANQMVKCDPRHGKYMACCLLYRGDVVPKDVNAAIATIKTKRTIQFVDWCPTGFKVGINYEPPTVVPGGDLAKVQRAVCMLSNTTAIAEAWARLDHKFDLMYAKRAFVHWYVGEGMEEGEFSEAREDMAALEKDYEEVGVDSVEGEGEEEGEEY
Sequence of microtubules polymerised from porcine brain tubulin (porcine) (P02554 whole entry, chain 2 of 2, further chain): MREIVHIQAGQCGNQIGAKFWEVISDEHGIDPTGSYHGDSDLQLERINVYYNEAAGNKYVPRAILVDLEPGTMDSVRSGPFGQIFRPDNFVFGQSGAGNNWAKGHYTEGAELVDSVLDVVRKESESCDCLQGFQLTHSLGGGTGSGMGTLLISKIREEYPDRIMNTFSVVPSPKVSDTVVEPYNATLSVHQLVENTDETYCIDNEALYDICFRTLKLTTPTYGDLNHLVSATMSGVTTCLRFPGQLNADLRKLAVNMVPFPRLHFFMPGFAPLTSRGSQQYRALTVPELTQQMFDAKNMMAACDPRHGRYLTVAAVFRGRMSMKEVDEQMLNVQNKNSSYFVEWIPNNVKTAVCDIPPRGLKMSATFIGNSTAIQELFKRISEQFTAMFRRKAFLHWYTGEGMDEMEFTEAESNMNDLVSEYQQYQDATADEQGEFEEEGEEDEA

Substance: sfGFP-DCLK1 wild type (mouse, aa 1-740), co-expressed with lambda phosphatase, autophosphorylated by 30 min with 2 mM ATP (natural protein)
- microtubule-bound fluorescence intensity at 10 nM [1]: 12500
- percent of DCLK1 that co-pelleted with microtubules [2]: 86.2%

Substance: sfGFP-DCLK1 wild type (mouse, aa 1-740), expressed in bacteria under standard conditions (natural protein)
- microtubule-bound fluorescence intensity at 3 nM [5]: 2750
- microtubule-bound fluorescence intensity at 25 nM [5]: 16100

Substance: sfGFP-DCLK1 wild type (mouse, aa 1-740), treated with lambda phosphatase after purification (natural protein)
- microtubule-bound fluorescence intensity at 3 nM [5]: 15100
- microtubule-bound fluorescence intensity at 25 nM [5]: 18200

Substance: sfGFP-DCLK1-D511N (kinase-dead, mouse, full length) (natural protein)
- microtubule-bound fluorescence intensity at 3 nM [5]: 9070
- microtubule-bound fluorescence intensity at 25 nM [5]: 19700

Substance: sfGFP-DCLK1-ΔC (mouse, aa 1-648), treated with lambda phosphatase after purification (domain or fragment)
- microtubule-bound fluorescence intensity at 3 nM [5]: 12000
- microtubule-bound fluorescence intensity at 25 nM [5]: 21200

Substance: sfGFP-DCLK1-ΔC DC1-4A (S77, S83, S96, T143 to alanine), co-expressed with lambda phosphatase, incubated with ATP (domain or fragment)
- microtubule-bound fluorescence intensity at 5 nM [6]: 4040
- microtubule-bound fluorescence intensity at 20 nM [6]: 12600

Substance: sfGFP-DCLK1-ΔC DC2-4A (T189, S193, T218, S228 to alanine), co-expressed with lambda phosphatase, not incubated with ATP (domain or fragment)
- microtubule-bound fluorescence intensity at 5 nM [5]: 8550
- microtubule-bound fluorescence intensity at 20 nM [5]: 19900

Continued, values first:

- percent of DCLK1 that co-pelleted with microtubules [3]: 99.3%
- microtubule-bound fluorescence intensity at 10 nM [4]: 15000
Substance: sfGFP-DCLK1 wild type (mouse, aa 1-740), co-expressed with lambda phosphatase, not incubated with ATP (natural protein)

- percent of DCLK1 that co-pelleted with microtubules [2]: 7.9%
Substance: sfGFP-DCLK1-T688A (mouse, full length), co-expressed with lambda phosphatase, incubated 30 min with 2 mM ATP (natural protein)

- percent of DCLK1 that co-pelleted with microtubules [3]: 98.9%
Substance: sfGFP-DCLK1-T688A (mouse, full length), co-expressed with lambda phosphatase, not incubated with ATP (natural protein)

- microtubule-bound fluorescence intensity at 5 nM [6]: 988
- microtubule-bound fluorescence intensity at 20 nM [6]: 1580
- microtubule-bound fluorescence intensity at 10 nM [1]: 1580
- percent of DCLK1 that co-pelleted with microtubules [2]: 6.9%
Substance: sfGFP-DCLK1-ΔC (mouse, aa 1-648), co-expressed with lambda phosphatase, hyperphosphorylated by 30 min with 2 mM ATP (domain or fragment)

- percent of DCLK1 that co-pelleted with microtubules [3]: 96.3%
- microtubule-bound fluorescence intensity at 5 nM [5]: 12900
- microtubule-bound fluorescence intensity at 20 nM [5]: 23600
- microtubule-bound fluorescence intensity at 10 nM [4]: 12100
Substance: sfGFP-DCLK1-ΔC (mouse, aa 1-648), co-expressed with lambda phosphatase, not incubated with ATP (domain or fragment)

- microtubule-bound fluorescence intensity at 5 nM [5]: 12200
- microtubule-bound fluorescence intensity at 20 nM [5]: 22300
Substance: sfGFP-DCLK1-ΔC DC1-4A (S77, S83, S96, T143 to alanine), co-expressed with lambda phosphatase, not incubated with ATP (domain or fragment)

- microtubule-bound fluorescence intensity at 5 nM [6]: 2480
- microtubule-bound fluorescence intensity at 20 nM [6]: 3500
Substance: sfGFP-DCLK1-ΔC DC2-4A (T189, S193, T218, S228 to alanine), co-expressed with lambda phosphatase, incubated with ATP (domain or fragment)

Source: paper PMC8352597
